Legend:
GUCY2C_ECD Peptide 13 = biological target: T1, GUCY2C_ECD Peptide 13 (human); experiment: peptide DELFIA ELISA;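 also: epitope mapping using overlapping 20-mer GUCY2C peptides covering residues 1-440, extracellular into transmembrane domain, coated at 20 µg/ml as target antigen and probed with antibodies or GUCY2C-CD3 bispecifics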
T1 peptide: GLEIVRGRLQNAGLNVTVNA
Procedure: (§1) Arrays were reconstituted with acetonitrile to 100 μg/ml and were then further diluted to 20 μg/ml with sodium carbonate/bicarbonate buffer. Purified antibodies or GUCY2c-CD3 bispecifics were then tested by Delfia ELISA for binding to the different peptides using Delfia ELISA methods previously discussed, with diluted peptides used as the target antigen.

GUCY2C_ECD Peptide 32 = biological target: T2, GUCY2C_ECD Peptide 32 (human); experiment: peptide DELFIA ELISA;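 also: epitope mapping using overlapping 20-mer GUCY2C peptides covering residues 1-440, extracellular into transmembrane domain, coated at 20 µg/ml as target antigen and probed with antibodies or GUCY2C-CD3 bispecifics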
T2 peptide: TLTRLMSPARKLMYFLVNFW
Procedure: as §1

GUCY2C_ECD Peptide 82 = biological target: T3, GUCY2C_ECD Peptide 82 (human); experiment: peptide DELFIA ELISA;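 also: epitope mapping using overlapping 20-mer GUCY2C peptides covering residues 1-440, extracellular into transmembrane domain, coated at 20 µg/ml as target antigen and probed with antibodies or GUCY2C-CD3 bispecifics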
T3 peptide: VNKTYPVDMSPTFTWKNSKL
Procedure: as §1

Human CD3 epsilon-delta = biological target: T4, Human CD3 epsilon-delta (human); experiment: SPR, CD3 captured by anti-His, printed 25 C (Table 33C)
T4 construct: Single-chain epsilon-linker-delta with His6; also called huCD3
T4 chain: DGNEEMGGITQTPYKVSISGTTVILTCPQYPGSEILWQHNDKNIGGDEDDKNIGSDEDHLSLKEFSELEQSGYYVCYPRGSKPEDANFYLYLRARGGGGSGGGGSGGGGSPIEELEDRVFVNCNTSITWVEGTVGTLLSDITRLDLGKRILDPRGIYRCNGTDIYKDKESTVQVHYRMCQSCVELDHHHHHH

[1] = biological target: T5, Murine GUCY2C-ECD cleaved (mouse, UniProt Q3UWA6 20-433); experiment: SPR, GUCY2c directly immobilized, 25 C
T5 sequence: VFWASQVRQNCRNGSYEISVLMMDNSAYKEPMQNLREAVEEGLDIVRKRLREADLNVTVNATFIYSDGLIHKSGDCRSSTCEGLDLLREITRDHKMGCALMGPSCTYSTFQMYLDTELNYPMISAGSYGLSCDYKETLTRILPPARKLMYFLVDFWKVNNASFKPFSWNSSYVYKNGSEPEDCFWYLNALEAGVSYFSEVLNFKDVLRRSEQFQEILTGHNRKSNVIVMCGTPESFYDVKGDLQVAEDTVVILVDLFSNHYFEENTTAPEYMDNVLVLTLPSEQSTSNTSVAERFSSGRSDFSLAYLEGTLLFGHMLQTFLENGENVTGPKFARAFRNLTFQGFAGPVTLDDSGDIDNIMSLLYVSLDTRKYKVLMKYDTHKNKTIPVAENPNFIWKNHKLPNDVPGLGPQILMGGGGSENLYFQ

[2] = biological target: T6, Cynomolgus GUCY2C-ECD Cleaved (cynomolgus, UniProt P25092 24-430 (human entry)); experiment: direct DELFIA, RT
T6 construct: also called CyGUCY2C
T6 chain: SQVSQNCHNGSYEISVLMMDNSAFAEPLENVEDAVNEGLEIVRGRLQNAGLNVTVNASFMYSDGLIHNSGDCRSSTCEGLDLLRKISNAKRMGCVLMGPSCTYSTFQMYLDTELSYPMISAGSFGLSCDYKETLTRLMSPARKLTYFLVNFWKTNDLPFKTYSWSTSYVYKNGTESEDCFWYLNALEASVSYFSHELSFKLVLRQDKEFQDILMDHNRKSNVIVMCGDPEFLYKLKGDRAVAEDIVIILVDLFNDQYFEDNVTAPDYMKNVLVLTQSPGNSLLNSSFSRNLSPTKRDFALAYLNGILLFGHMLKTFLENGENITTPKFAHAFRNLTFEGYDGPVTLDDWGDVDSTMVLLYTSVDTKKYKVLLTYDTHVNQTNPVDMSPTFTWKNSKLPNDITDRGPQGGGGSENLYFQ

[3] = biological target: T7, Human GUCY2c on tumor cells (T84, HT55) (human, UniProt P25092 24-1073); experiment: flow cytometry titration on T84 tumor cells (PE-A Geo Mean against Ab in nM)
T7 construct: Endogenous receptor; also called GUCY2c expressing cell lines; T84 cells expressing human GUCY2c
T7 sequence (P25092 24-1073 limits assumed): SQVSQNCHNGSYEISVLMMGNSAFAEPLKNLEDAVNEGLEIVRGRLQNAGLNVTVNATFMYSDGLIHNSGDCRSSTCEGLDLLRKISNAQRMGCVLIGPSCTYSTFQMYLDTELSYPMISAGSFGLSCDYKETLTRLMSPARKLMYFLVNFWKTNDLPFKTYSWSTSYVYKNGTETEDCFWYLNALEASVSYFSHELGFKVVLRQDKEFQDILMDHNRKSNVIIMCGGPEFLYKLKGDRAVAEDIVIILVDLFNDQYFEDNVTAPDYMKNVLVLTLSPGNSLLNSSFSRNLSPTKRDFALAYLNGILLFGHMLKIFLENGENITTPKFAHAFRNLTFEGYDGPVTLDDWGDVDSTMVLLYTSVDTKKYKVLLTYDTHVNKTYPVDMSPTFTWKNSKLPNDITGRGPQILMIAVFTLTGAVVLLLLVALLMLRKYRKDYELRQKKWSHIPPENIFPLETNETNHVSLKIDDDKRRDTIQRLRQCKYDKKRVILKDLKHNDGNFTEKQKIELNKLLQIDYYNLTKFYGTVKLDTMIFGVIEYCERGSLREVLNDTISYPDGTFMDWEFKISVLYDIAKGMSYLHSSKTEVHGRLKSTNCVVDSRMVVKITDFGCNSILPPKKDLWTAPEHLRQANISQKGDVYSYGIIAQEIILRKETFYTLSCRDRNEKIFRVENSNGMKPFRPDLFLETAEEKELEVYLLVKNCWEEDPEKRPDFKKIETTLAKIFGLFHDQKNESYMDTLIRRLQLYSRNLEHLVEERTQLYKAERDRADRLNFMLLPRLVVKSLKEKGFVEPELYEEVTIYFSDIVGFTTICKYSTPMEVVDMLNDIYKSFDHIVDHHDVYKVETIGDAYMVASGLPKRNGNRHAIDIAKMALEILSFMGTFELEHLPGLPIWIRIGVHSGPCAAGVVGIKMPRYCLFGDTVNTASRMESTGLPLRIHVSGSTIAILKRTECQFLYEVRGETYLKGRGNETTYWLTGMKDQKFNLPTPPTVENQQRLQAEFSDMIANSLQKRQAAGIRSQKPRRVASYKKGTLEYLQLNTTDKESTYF

B1: GUCY2C-1608 (bispecific antibody)
chain 1: DIQLTQSPSSLSASVGDRVTITCRASESVDYYGSSLLQWYQQKPGKAPKLLIYAASKLASGVPSRFSGSGSGTDFTLTISSLQPEDFATYYCQQTRKAYTFGQGTKLEIKGGGSGGGGEVQLVESGGGLVQPGGSLRLSCAASGFTFSDYYMTWVRQAPGKGLEWVAFIRNQARGYTSDHNPSVKGRFTISRDNAKNSLYLQMNSLRAEDTAVYYCARDRPSYYVLDYWGQGTTVTVSSGCPPCPAPEAAGAPSVFLFPPKPKDTLMISRTPEVTCVVVDVSHEDPEVKFNWYVDGVEVHNAKTKPREEQYNSTYRVVSVLTVLHQDWLNGKEYKCKVSNKALPAPIEKTISKAKGQPREPQVCTLPPSREEMTKNQVSLWCLVKGFYPSDIAVEWESNGQPENNYKTTPPVLDSDGSFFLYSKLTVDKSRWQQGNVFSCSVMHEALHNHYTQKSLSLSPG
chain 2: DIQMTQSPSSLSASVGDRVTITCTSSQSLFNVRSQKNYLAWYQQKPGKAPKLLIYWASTRESGVPSRFSGSGSGTDFTLTISSLQPEDFATYYCKQSYDLFTFGGGTKVEIKGGGGSGGGGEVQLVESGGGLVQPGGSLRLSCAASGFTFSSYWMHWVRQAPGKGLEWIGEIKPSNELTNVHEKFKDRFTISVDKAKNSAYLQMNSLRAEDTAVYYCTRTITTTEGYWFFDVWGQGTLVTVSSGCPPCPAPEAAGAPSVFLFPPKPKDTLMISRTPEVTCVVVDVSHEDPEVKFNWYVDGVEVHNAKTKPREEQYNSTYRVVSVLTVLHQDWLNGKEYKCKVSNKALPAPIEKTISKAKGQPREPQVYTLPPCREEMTKNQVSLSCAVKGFYPSDIAVEWESNGQPENNYKTTPPVLDSDGSFFLVSKLTVDKSRWQQGNVFSCSVMHEALHNHYTQKSLSLSPG
notes: also called GUCY2c CD3 bispecific
In the case of B1, the “DELFIA TRF” value (GUCY2C_ECD Peptide 13) is reported as 102, the “DELFIA TRF” value (GUCY2C_ECD Peptide 32) is reported as 83.2 and the “DELFIA TRF” value (GUCY2C_ECD Peptide 82) is reported as 99.2. For the same binder, the Kd (Human CD3 epsilon-delta) was 124 nM, the koff (Human CD3 epsilon-delta) was 0.09 s⁻¹ and the kon (Human CD3 epsilon-delta) was 744000 M⁻¹ s⁻¹. For the same binder, the Kd [1] was 17.3 nM, the koff [1] was 0.00157 s⁻¹ and the kon [1] was 91200 M⁻¹ s⁻¹. For the same binder, the EC50 [2] was 9.84 nM and the Kd [3] was 0.62 nM.
